According to PMC6689899, “An essential bifunctional enzyme in Mycobacterium tuberculosis for itaconate dissimilation and leucine catabolism” (Proceedings of the National Academy of Sciences of the …, 2019):

What was measured:
[1] = system: CC(=O)SCCNC(=O)CCNC(=O)[C@H](O)C(C)(C)COP(=O)(O)OP(=O)(O)OC[C@H]1O[C@@H](n2cnc3c(N)ncnc32)[C@H](O)[C@@H]1OP(=O)(O)O; experiment: purified protein
Rv2498c = target: T1, Rv2498c (Mycobacterium tuberculosis, UniProt P9WPE1)
T1 construct: gene citE
T1 sequence (P9WPE1 whole entry): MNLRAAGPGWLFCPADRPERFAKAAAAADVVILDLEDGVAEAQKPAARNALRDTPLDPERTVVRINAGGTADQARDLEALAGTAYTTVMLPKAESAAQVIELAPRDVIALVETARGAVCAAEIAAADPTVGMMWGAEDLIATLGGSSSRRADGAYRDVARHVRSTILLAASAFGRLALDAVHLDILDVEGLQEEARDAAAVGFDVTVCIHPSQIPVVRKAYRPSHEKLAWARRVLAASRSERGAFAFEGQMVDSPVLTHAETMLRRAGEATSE

Molecule	Km [1]	kcat/Km [1]	X-ray crystal structure (Rv2498c)
Rv1837c (Mycobacterium tuberculosis H37Rv)	45 ± 9 µM	1.7e+06 M⁻¹ s⁻¹	
CC(C)(COP(=O)(O)OP(=O)(O)OC[C@H]1O[C@@H](n2cnc3c(N)ncnc32)[C@H](O)[C@@H]1OP(=O)(O)O)[C@@H](O)C(=O)NCCC(=O)NCCS [CoA]			complexes with (S)-citramalyl-CoA (PDB ID code 6AQ4) and with acetoacetate:CoA (PDB ID code 6AS5)
CC(=O)CC(=O)O [acetoacetate]			complexes with (S)-citramalyl-CoA (PDB ID code 6AQ4) and with acetoacetate:CoA (PDB ID code 6AS5)
